Assays:
[1] = DiFMUP phosphatase assay, crude secreted fractions; details: glycan lost; control: wild-type r-hPAP
[2] = anti-hPAP western blot, lysates and secreted fractions; details: glycan lost; control: wild-type r-hPAP
[3] = DiFMUP phosphatase assay, crude cell lysates; details: glycan lost; control: wild-type r-hPAP
[4] = DiFMUP assay with 70 mM L-(+)-tartrate; details: glycan lost; control: wild-type r-hPAP
[5] = DiFMUP phosphatase assay after 24 h PNGase F; details: glycan lost; control: untreated r-hPAP

B1: secretory human prostatic acid phosphatase (hPAP, S-PAP): N62Q (protein)
parent chain: MRAAPLLLARAASLSLGFLFLLFFWLDRSVLAKELKFVTLVFRHGDRSPIDTFPTDPIKESSWPQGFGQLTQLGMEQHYELGEYIRKRYRKFLNESYKHEQVYIRSTDVDRTLMSAMTNLAALFPPEGVSIWNPILLWQPIPVHTVPLSEDQLLYLPFRNCPRFQELESETLKSEEFQKRLHPYKDFIATLGKLSGLHGQDLFGIWSKVYDPLYCESVHNFTLPSWATEDTMTKLRELSELSLLSLYGIHKQKEKSRLQGGVLVNEILNHMKRATQIPSYKKLIMYSAHDTTVSGLQMALDVYNGLLPPYASCHLTELYFEKGEYFVEMYYRNETQHEPYPLMLPGCSPSCPLERFAELVGPVIPQDWSTECMTTNSHQGTEDSTD
[1]
  enzymatic_activity, other: RFU/µg total protein at 10 min: decreases, 67.0 (2.78) vs 109.5 (1.44)
[2]
  expression_or_secretion: no change
[3]
  enzymatic_activity, other: RFU/µg total protein at 10 min: decreases, 7.8 (0.29) vs 12.2 (0.28)
[4]
  other: inhibition by L-(+)-tartrate: no change

B2: secretory human prostatic acid phosphatase (hPAP, S-PAP): N188Q (protein)
parent chain: MRAAPLLLARAASLSLGFLFLLFFWLDRSVLAKELKFVTLVFRHGDRSPIDTFPTDPIKESSWPQGFGQLTQLGMEQHYELGEYIRKRYRKFLNESYKHEQVYIRSTDVDRTLMSAMTNLAALFPPEGVSIWNPILLWQPIPVHTVPLSEDQLLYLPFRNCPRFQELESETLKSEEFQKRLHPYKDFIATLGKLSGLHGQDLFGIWSKVYDPLYCESVHNFTLPSWATEDTMTKLRELSELSLLSLYGIHKQKEKSRLQGGVLVNEILNHMKRATQIPSYKKLIMYSAHDTTVSGLQMALDVYNGLLPPYASCHLTELYFEKGEYFVEMYYRNETQHEPYPLMLPGCSPSCPLERFAELVGPVIPQDWSTECMTTNSHQGTEDSTD
[2]
  expression_or_secretion: decreases
[4]
  other: inhibition by L-(+)-tartrate: no change

B3: secretory human prostatic acid phosphatase (hPAP, S-PAP): N62Q, N188Q (protein)
parent chain: MRAAPLLLARAASLSLGFLFLLFFWLDRSVLAKELKFVTLVFRHGDRSPIDTFPTDPIKESSWPQGFGQLTQLGMEQHYELGEYIRKRYRKFLNESYKHEQVYIRSTDVDRTLMSAMTNLAALFPPEGVSIWNPILLWQPIPVHTVPLSEDQLLYLPFRNCPRFQELESETLKSEEFQKRLHPYKDFIATLGKLSGLHGQDLFGIWSKVYDPLYCESVHNFTLPSWATEDTMTKLRELSELSLLSLYGIHKQKEKSRLQGGVLVNEILNHMKRATQIPSYKKLIMYSAHDTTVSGLQMALDVYNGLLPPYASCHLTELYFEKGEYFVEMYYRNETQHEPYPLMLPGCSPSCPLERFAELVGPVIPQDWSTECMTTNSHQGTEDSTD
[2]
  expression_or_secretion: decreases
[4]
  other: inhibition by L-(+)-tartrate: no change

B4: secretory human prostatic acid phosphatase (hPAP, S-PAP): N301Q (protein)
parent chain: MRAAPLLLARAASLSLGFLFLLFFWLDRSVLAKELKFVTLVFRHGDRSPIDTFPTDPIKESSWPQGFGQLTQLGMEQHYELGEYIRKRYRKFLNESYKHEQVYIRSTDVDRTLMSAMTNLAALFPPEGVSIWNPILLWQPIPVHTVPLSEDQLLYLPFRNCPRFQELESETLKSEEFQKRLHPYKDFIATLGKLSGLHGQDLFGIWSKVYDPLYCESVHNFTLPSWATEDTMTKLRELSELSLLSLYGIHKQKEKSRLQGGVLVNEILNHMKRATQIPSYKKLIMYSAHDTTVSGLQMALDVYNGLLPPYASCHLTELYFEKGEYFVEMYYRNETQHEPYPLMLPGCSPSCPLERFAELVGPVIPQDWSTECMTTNSHQGTEDSTD
[2]
  expression_or_secretion: abolishes

B5: secretory human prostatic acid phosphatase (hPAP, S-PAP): N62Q, N301Q (protein)
parent chain: MRAAPLLLARAASLSLGFLFLLFFWLDRSVLAKELKFVTLVFRHGDRSPIDTFPTDPIKESSWPQGFGQLTQLGMEQHYELGEYIRKRYRKFLNESYKHEQVYIRSTDVDRTLMSAMTNLAALFPPEGVSIWNPILLWQPIPVHTVPLSEDQLLYLPFRNCPRFQELESETLKSEEFQKRLHPYKDFIATLGKLSGLHGQDLFGIWSKVYDPLYCESVHNFTLPSWATEDTMTKLRELSELSLLSLYGIHKQKEKSRLQGGVLVNEILNHMKRATQIPSYKKLIMYSAHDTTVSGLQMALDVYNGLLPPYASCHLTELYFEKGEYFVEMYYRNETQHEPYPLMLPGCSPSCPLERFAELVGPVIPQDWSTECMTTNSHQGTEDSTD
[2]
  expression_or_secretion: abolishes

B6: secretory human prostatic acid phosphatase (hPAP, S-PAP): N188Q, N301Q (protein)
parent chain: MRAAPLLLARAASLSLGFLFLLFFWLDRSVLAKELKFVTLVFRHGDRSPIDTFPTDPIKESSWPQGFGQLTQLGMEQHYELGEYIRKRYRKFLNESYKHEQVYIRSTDVDRTLMSAMTNLAALFPPEGVSIWNPILLWQPIPVHTVPLSEDQLLYLPFRNCPRFQELESETLKSEEFQKRLHPYKDFIATLGKLSGLHGQDLFGIWSKVYDPLYCESVHNFTLPSWATEDTMTKLRELSELSLLSLYGIHKQKEKSRLQGGVLVNEILNHMKRATQIPSYKKLIMYSAHDTTVSGLQMALDVYNGLLPPYASCHLTELYFEKGEYFVEMYYRNETQHEPYPLMLPGCSPSCPLERFAELVGPVIPQDWSTECMTTNSHQGTEDSTD
[2]
  expression_or_secretion: abolishes

B7: secretory human prostatic acid phosphatase (hPAP, S-PAP): N62Q, N188Q, N301Q (protein)
parent chain: MRAAPLLLARAASLSLGFLFLLFFWLDRSVLAKELKFVTLVFRHGDRSPIDTFPTDPIKESSWPQGFGQLTQLGMEQHYELGEYIRKRYRKFLNESYKHEQVYIRSTDVDRTLMSAMTNLAALFPPEGVSIWNPILLWQPIPVHTVPLSEDQLLYLPFRNCPRFQELESETLKSEEFQKRLHPYKDFIATLGKLSGLHGQDLFGIWSKVYDPLYCESVHNFTLPSWATEDTMTKLRELSELSLLSLYGIHKQKEKSRLQGGVLVNEILNHMKRATQIPSYKKLIMYSAHDTTVSGLQMALDVYNGLLPPYASCHLTELYFEKGEYFVEMYYRNETQHEPYPLMLPGCSPSCPLERFAELVGPVIPQDWSTECMTTNSHQGTEDSTD
[2]
  expression_or_secretion: abolishes

B8: secretory human prostatic acid phosphatase (hPAP, S-PAP): PNGase F (protein)
parent chain: MRAAPLLLARAASLSLGFLFLLFFWLDRSVLAKELKFVTLVFRHGDRSPIDTFPTDPIKESSWPQGFGQLTQLGMEQHYELGEYIRKRYRKFLNESYKHEQVYIRSTDVDRTLMSAMTNLAALFPPEGVSIWNPILLWQPIPVHTVPLSEDQLLYLPFRNCPRFQELESETLKSEEFQKRLHPYKDFIATLGKLSGLHGQDLFGIWSKVYDPLYCESVHNFTLPSWATEDTMTKLRELSELSLLSLYGIHKQKEKSRLQGGVLVNEILNHMKRATQIPSYKKLIMYSAHDTTVSGLQMALDVYNGLLPPYASCHLTELYFEKGEYFVEMYYRNETQHEPYPLMLPGCSPSCPLERFAELVGPVIPQDWSTECMTTNSHQGTEDSTD
[5]
  enzymatic_activity: no change
